Data from patent US20220177583A1.

How the values were obtained:
[1] = target: human CLDN6 fused to GFP, expressed on engineered HEK293T cells (human) (UniProt P56747); experiment: FACS, 293T clone with human CLDN6, 0.3 ug Ab
[2] = target: human CLDN6 fused to GFP, expressed on engineered HEK293T cells (human) (UniProt P56747); experiment: FACS, 293T clone with human CLDN6, 1.5 ug Ab
[3] = target: human CLDN6 fused to GFP, expressed on engineered HEK293T cells (human) (UniProt P56747); experiment: FACS dose curve, labelled mAb, HEK293T-CLDN6-mGFP cells
[4] = target: CLDN3/4 endogenously expressed on LS513 and MCF7 cells; experiment: FACS dose curve, labelled mAb, LS513 cells
[5] = target: CLDN3/4 endogenously expressed on LS513 and MCF7 cells; experiment: FACS dose curve, labelled mAb, MCF7 cells

| FACS signal [1] | FACS signal [2] | EC50 [3] [nM] | EC50 [4] [nM] | EC50 [5] [nM] | Binder |
| --- | --- | --- | --- | --- | --- |
| 9500 | 24600 | – | – | – | AB9-3 (antibody, V domains shown) VH: QVQLVQSGAEVKKPGASVKMSCKASGYRFTDYNMHWVRQAPGQGLEWIGYINPNNGGTNYAQKFQGRATLTVDTSTSTAYMELSSLRSEDTAVYYCARDYLYFFDCWGQGTLLTVSS VL: DIQMTQSPSSLSASVGDRVTITCLASQTIGTWLAWYQQKPGKAPKLLIYAAASLADGVPSRFSGSGSGTDFTFTISSLQPEDFVTYYCQQLYSIPRTFGQGTKLEIK |
| 15300 | 34300 | – | – | – | AB9-4 (antibody, V domains shown) VH: QVQLVQSGAEVKKPGASVKMSCKASGYRFTDYNMHWVRQAPGQGLEWIGYINPNNGGTNYAQKFQGRATLTVDTSTSTAYMELSSLRSEDTAVYYCARDYLYFFDCWGQGTLLTVSS VL: DIQMTQSPSSLSASVGDRVTITCRASQTIGTWLAWYQQKPGKAPKLLIYAAASLADGVPSRFSGSGSGTDFTFTISSLQPEDFVTYYCQQLYSIPRTFGQGTKLEIK |
| – | – | 109 | 5000 | 5000 | AB1 (antibody, V domains shown) VH: QVQLQQSAAELARPGASVKMSCKASGYTFTTYTMHWVKQRPGQGLEWIGFINPSSGYTDYNQKFKDRTTLTADKSSSTVYMQLSSLTSEDSAVYYCANGDYYVAYWGQGTLVTVSA VL: QIVLTQSPAIMSASLGERVTMTCTASSSVSSTYFHWYQQKPGSSPKLWIYSTSNLASGVPRRFSGSASGTSYSLTISSMEAEDAATYYCHQYHRSPLTFGAGTKLELK |
| – | – | 579 | 635 | 979 | AB7 (antibody, V domains shown) VH: EVQLQQSGPELVKPGASMKISCKASGYSFTGYTMNWVKQSHGKNLEWIGLINPYNGGTNYNQKFKGKATLTVDKSSSTAYMELLSLTSEDSAVYYCARGVYDYDGFTYWGQGTLVTVSA VL: QIVLTQSPAIMSASLGDRVTMTCTASSSVSSSYLHWYQQKPGSSPKLWIYSTSNLASGVPARFSGSGSGTSYSLTISSMEAEDAATYYCHQYHRSPPTFGSGTKLEIK |
| 32400 | 54400 | – | – | – | AB18-4 (antibody, V domains shown) VH: QVQLVQSGAEVKKPGASVKVSCKASGYSFTGYNMNWVRQAPGQGLEWMGNIDPYYGGSTYAQKFQGRVTMTVDTSTSTVYMELSSLRSEDTAVYYCARERSGYVFSAMDYWGQGTLVTVSS VL: DIVMTQSPDSLAVSLGERVTMNCKSSQSVLFSSNQKNYLAWYQQKPGQPPKLLIYWASTRESGVPDRFSGSGSGTDFTLTISSVQAEDVAVYYCHQYLSSRTFGQGTKLEIK |
| 26900 | 58500 | – | – | – | AB18-6 (antibody, V domains shown) VH: QVQLVQSGAEVKKPGASVKISCKASGYSFTGYNMNWVRQAPGQGLEWIGNIDPYYGGSTYAQKFQGRATLTVDTSTSTAYMELSSLRSEDTAVYYCARERSGYVFSAMDYWGQGTLVTVSS VL: DIVMTQSPDSLAVSLGERVTMNCKSSQSVLFSSNQKNYLAWYQQKPGQPPKLLIYWASTRESGVPDRFSGSGSGTDFTLTISSVQAEDVAVYYCHQYLSSRTFGQGTKLEIK |
| – | – | 1430 | 133 | 1140 | AB6 (antibody, V domains shown) VH: DVQLQESGPGLVKSSQSLSLTCSVTGYSITSGYYWKWIRQFPGNKLEWMGYISYDGGINYNPSLKNRISITRDTSKNQFFLKLNSVTTEDTAKYYCARFGKGAMDYWGQGTSVTVSS VL: AIVMFQSPSSLVVSAGEKVTMSCKSSQSLLNSRTRKNYLAWYQQKPGQSPKLLIYWASTRESGVPDRFTGSGSGTDFTLTISSVQAEDLAVYYCKQSYYLYTFGGGTKLEIK |
| – | – | 17 | 730 | 653 | AB4 (antibody, V domains shown) VH: QVQLQQSGAELARPGASVKMSCKASGYTFTSYTMHWIKQRPGQGQEWIGYINPSSTYTHYIKKFKDKATLTADKSSSTAYMQLRSLTSEDSAVYYCSRGELGGFAYWGQGTLVTVSA VL: DVVMTQTPLSLPVSLGDQASISCRSSQSLVHSDGNTYLNWYLQKPGQSPKLLIYKVSNRFSGVPDRFSGSGSGTDFTLKIRRVEAEDLGVYFCSQSTHVPYTFGGGTKLEIK |
| 73800 | 135000 | – | – | – | AB18-chim (antibody, V domains shown) VH: QVQLKQSGPELEKPGASVKISCKASGYSFTGYNMNWVKQSNGKSLEWIGNIDPYYGGSTYNQKFTGKATLTVDKSSSTAYMQLKSLTSEDSAVYYCARERSGYVFSAMDYWGQGTSVTVSS VL: NIMMTQSPSSLAVSAGEKVTMSCKSSQSVLFSSNQKNYLAWYQQKPGQSPRLLIYWASTRESGVPDRFTGSGSGTDFTLTISNVQAEDLAVYYCHQYLSSRTFGAGTKLELK |
| – | – | 604 | 5000 | 5000 | AB3 (antibody, V domains shown) VH: EVKLEESGGGLVQPGGSMKLSCVASGFTFSNYWMNWVRQSPEKGLEWVAQIRLKSDNYATHYAESVKGRFTISRDDSKRSVYLQMNNLRAEDTGTYYCNDGPPSGCWGQGTTLIVSS VL: DIQMTQSPASLSASVGETVTITCRISENIYSYLAWYQQKQGKSPQLLVYNAKILVEGVPSRFSGSGSGTQFSLKINSLQPEDFGNYYCQHHYTVPWTFGGGTKLEIK |
| – | – | 182 | 5000 | 5000 | AB2 (antibody, V domains shown) VH: EVKLEESGGGLVQPGGSMKLSCVASGFTFSDYWMNWVRQSPEKGLEWVAQIRLKSDNYATHYAESVKGRFTISRDDSKRSVYLQMNNLRAEDTGTYYCNDGPPSGCWGQGTTLIVSS VL: DIQMTQSPASLSASVGETVTITCRISENIYSYLAWYQQKQGKSPQLLVYNAKILVEGVPSRFSGSGSGTQFSLKINSLQPEDFGNYYCQHHYTVPWTFGGGTKLEIK |
| 1670 | 3490 | – | – | – | AB11-chim (antibody, V domains shown) VH: DVQLVESGGGLVQPRGSRKLSCAASGFTFSSFGMHWVRQAPEKGLEWVAYISSDSRTIYYADTVKGRFTISRDNPTNTLFLQMTSLRSEDTAMYYCARDYGRTYEAYWGQGTLVTVSA VL: DIVLTQSPASLAVSLGQRATISCRASKSVSTSGYSYIHWYQQKPGQPPKLLIYLASNLESGVPARFSGSGSGTDFTLNIHPVEEEDAATYYCQHSRELPLTFGAGTKLELK |
| 50800 | 77200 | – | – | – | AB4-10 (antibody, V domains shown) VH: QVQLVQSGAEVKKPGASVKMSCKASGYTFTSYTMHWIRQAPGQGQEWIGYINPSSTYTHYIKKFKDRATLTADTSTSTAYMELSSLRSEDTAVYYCSRGELGGFAYWGQGTLVTVSS VL: DVVMTQSPLSLPVTLGQPASISCRSSQSLVHSDGNTYLNWYQQRPGQSPRLLIYKVSNRFSGVPDRFSGSGSGTDFTLKISRVEAEDVGVYYCSQSTHVPYTFGQGTKLEIK |
| 37800 | 61200 | – | – | – | AB4-11 (antibody, V domains shown) VH: QVQLVQSGAEVKKPGASVKMSCKASGYTFTSYTMHWIRQAPGQGLEWIGYINPSSTYTHYIKKFKDRATLTADKSTSTAYMELSSLRSEDTAVYYCSRGELGGFAYWGQGTLVTVSS VL: DVVMTQSPLSLPVTLGQPASISCRSSQSLVHSDGNTYLNWYQQRPGQSPRLLIYKVSNRFSGVPDRFSGSGSGTDFTLKISRVEAEDVGVYYCSQSTHVPYTFGQGTKLEIK |
| 71100 | 86200 | – | – | – | AB4-12 (antibody, V domains shown) VH: QVQLVQSGAEVKKPGASVKMSCKASGYTFTSYTMHWIRQAPGQGQEWIGYINPSSTYTHYIKKFKDRATLTADKSTSTAYMELSSLRSEDTAVYYCSRGELGGFAYWGQGTLVTVSS VL: DVVMTQSPLSLPVTLGQPASISCRSSQSLVHSDGNTYLNWYQQRPGQSPRLLIYKVSNRFSGVPDRFSGSGSGTDFTLKISRVEAEDVGVYYCSQSTHVPYTFGQGTKLEIK |
| – | – | 10 | 781 | 1480 | AB5 (antibody, V domains shown) VH: EVQLQQSGPELVKPGASVKMSCKASGYIFTHYIMHWVKQKPGQGLEWIGCINPYNDGTKYNEKFKGKATLTSDKSSSTAYMELSSLTSEDSAVYYCARYYGYPYYSMDYWGQGTSVTVSS VL: DVLMTQTPLSLPVSLGDQPSISCRSSQSIVHSNGNTYLDWYLQKPGQSPKLLIYKVSNRFSGVPDRFSGSGSGTDFTLKISRVEAEDLGVYYCFQGSHVPFTFGSGTRLEIK |
| 1290 | 2560 | – | – | – | AB11-2 (antibody, V domains shown) VH: EVQLVESGGGLVQPGGSLRLSCAASGFTFSSFGMHWVRQAPGKGLEWVAYISSDSRTIYYADSVKGRFTISRDNAKNSLYLQMNSLRAEDTAVYYCARDYGRTYEAYWGQGTLVTVSS VL: DIVMTQSPDSLAVSLGERATINCRASKSVSTSGYSYIHWYQQKPGQPPKLLIYLASNLESGVPDRFSGSGSGTDFTLTISSLQAEDVAVYYCQHSRELPLTFGQGTKLEIK |
| 1010 | 2360 | – | – | – | AB11-3 (antibody, V domains shown) VH: EVQLVESGGGLVQPGGSLRLSCAASGFTFSSFGMHWVRQAPGKGLEWVAYISSDSRTIYYADSVKGRFTISRDNAKNSLYLQMNSLRAEDTAVYYCARDYGRTYEAYWGQGTLVTVSS VL: DIVLTQSPDSLAVSLGERATINCRASKSVSTSGYSYIHWYQQKPGQPPKLLIYLASNLESGVPDRFSGSGSGTDFTLTISSVQAEDVAVYYCQHSRELPLTFGQGTKLELK |
| 46700 | 72000 | – | – | – | AB9-chim (antibody, V domains shown) VH: EVQLQQSGPELVKPGASVKMSCKASGYRFTDYNMHWVKQSHGKSLEWIGYINPNNGGTNYNQNFKGKATLTVNKSSSTAYMELRSLTSEDSAAYYCARDYLYFFDCWGQGTTLTVSS VL: DIQMTQSPASQSASLGESVTITCLASQTIGTWLAWYQQKPGKSPQLLIYAAASLADGVPSRFSGSGSGTRFSFKISSLQAEDFVSYYCQQLYSIPRTFGGGTKLEIK |
